Laboratory results reported in patent publication US20030109416A1 (MOCHIDA PHARMACEUTICAL, published 2003).

Target: T1, extracellular domain of the human Fas ligand (produced in Pichia pastoris GS115) (human, UniProt P48023 103-281)
T1 construct: extracellular domain; also called human Fas ligand extracellular domain
T1 sequence (looked up): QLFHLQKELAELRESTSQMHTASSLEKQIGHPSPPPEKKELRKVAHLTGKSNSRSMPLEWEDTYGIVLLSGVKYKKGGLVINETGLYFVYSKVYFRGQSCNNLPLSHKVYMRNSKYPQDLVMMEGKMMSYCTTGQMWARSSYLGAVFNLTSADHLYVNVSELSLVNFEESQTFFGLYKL
Assay: affinity chromatography on immobilized hFas-Fc

- binding result: binds
B1: hFas-Fc (chimeric protein of the extracellular domain of the human Fas antigen and Fc region of human IgG1) (Fc fusion, UniProt P25445 26-173, looked up)
chain: QVTDINSKGLELRKTVTTVETQNLEGLHHDGQFCHKPCPPGERKARDCTVNGDEPDCVPCQEGKEYTDKAHFSSKCRRCRLCDEGHGLEVEINCTRTQNTKCRCKPNFFCNSTVCEHCDPCTKCEHGIIKECTLTSNTKCKEEGSRSN
notes: extracellular domain; The construct limits are only in WO 95/13293; also called human Fas-Fc; product of plasmid pBF-Fc1; not shown: Fc region of human IgG1
